{
  "source": "the nanobody polyreactivity screen of Harvey et al. (2022)",
  "data": [
    {"experiment": "yeast display, Sf9 membrane polyspecificity reagent, FACS + sequencing; frameworks hold sequencing errors", "how_it_was_run": "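Using colony PCR, genes from sorted yeast display clones were amplified, then sequenced on MiSeq at 2 × 250 and filtered by CDR length. The clones had been stained with 10% biotinylated, detergent-solubilized Sf9 membrane reagent for 1 hour at 4 °C and sorted by FACS into low and high (top ~1%) gates on anti-HA and streptavidin fluorescence. Polyreactivity labels come from the gate of origin.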", "values": [
      {"sequence": "QVQLVESGGGLVQAGGSLRLSCAASGFTFKSYAMGWYRQAPGKERELVAAINRSGGSTYYADSVKGRFTISRDNAKNTVYLQMNSLKPEDTAVYYCAAVKPPDYYYWGQGTQVTVSS", "polyreactivity (PSR sort gate)": "high polyreactivity"},
      {"sequence": "QVQLVESGGGLVQAGGSLRLSCAASGFTFHRYAMGWYRQAPGKERELVARINWSGGGTYYADSVKGRFTISRDNAKNTVYLQMNSLKPEDTAVYYCNARGVFYVYKHDYWGQGTQVTVSS", "polyreactivity (PSR sort gate)": "high polyreactivity"},
      {"sequence": "QVQLVESGGGLVQAGGSLRLSCAASGRTFSKYAMAWYRQAPGKERELVAAISSSGGSTYYADSVKGRFTISRDNAKNTVYLQMNSLKPEDTAVYYCATRVYPRYWFTTRYRYDYWGQGTQVTVSS", "polyreactivity (PSR sort gate)": "low polyreactivity"},
      {"sequence": "QVQLVESGGGLVQAGGSLRLSCAASGLIFFINDMGWYRQAPGKERELVAAITSGGSTYYADSVKGRFTISRDNAKNTVYLQMNSLKPEDTAVYYCAADSYDWYDYWGQGTQVTVSS", "polyreactivity (PSR sort gate)": "high polyreactivity"},
      {"sequence": "QVQLVESGGGLVQAGGSLRLSCAASGSIFNSYAMGWYRQAPGKERELVAAITRSDGSTYYADSVKGRFTISRDKAKNTVYLQMNSLKPEDTAVYYCAKGVGGYIYSEYDYWGQGTQVTVSS", "polyreactivity (PSR sort gate)": "low polyreactivity"},
      {"sequence": "QVQRVESGGGLVQAGGSLRLSCAASGSTFPRNAMGWYRQAPGKEREFVAAISYSGGRTYYADSVKGRFTISRDNAKNTVYLQMNSLKPEDTAVYYCAAQPYSHVRGKSYGYWGQGTQVTVSS", "polyreactivity (PSR sort gate)": "high polyreactivity"},
      {"sequence": "QVQLVESGGGLVQAGCSLRLSCDASGSTFNWNAMGRYRQAPGKERELVAVIRRNGATTNYADSVKGRFTISRDNAKITVYLQMNSLKPEDTAVYYCAVAKWQPRRRKYYYWGQGTQVTVSS", "polyreactivity (PSR sort gate)": "high polyreactivity"},
      {"sequence": "QVHLVESGGGLVQAGGSLRLSCAASGRTFGPYTMGWYRQAPGTEREVVAAINSSGSRTYYADSVKGRFTISRDNAKNTVYLQMNSLKPEDTAVYYCADEAKWYYSWSYPYEGDYWGQGTQVTVSS", "polyreactivity (PSR sort gate)": "low polyreactivity"},
      {"sequence": "QVQLVDSGGGLVQAGGSLRLSCAASGRIFQQNAMGWYRQAPGKERELVAAISWRGTSTYYADSVKGRFTISRDNAKNTVYLQMNSLKPEDTAVYYCAAQGYAYTLVAKVYRWYEYAYWGQGTQVTVSS", "polyreactivity (PSR sort gate)": "high polyreactivity"},
      {"sequence": "QVQLVESGGGLVQAGGSLRLICAASGRISVFYTMGWYRQAPGKERELVAVIRTSGGRTNYADSVKGRFTISRDNAKNTVYLQMNSLKPEDTAVYYCAARVVRYGYKYYYWGQGTQVTVSS", "polyreactivity (PSR sort gate)": "low polyreactivity"},
      {"sequence": "QVQLVESGGGLVQAAGSLPLSCAASGSTLLNYAMGWYRQAPGKQSQLVAAISSSGGRTYYADSVKGRFTISRDNAKNTVYLQMNSLKPEDTAVYYCNKGLGYPKTFGYWGQGTQVTVSS", "polyreactivity (PSR sort gate)": "high polyreactivity"},
      {"sequence": "QVQLVESGGGLVQAGGSLRLSCAASGSTFVPNDMGWYRQAPGKEMELVAGISSGGGTYADSVKGRFTISRDNAKNTVYLQLNSLKPVDTAVYYCNALHAYYVLTPYDYWGQGTQVTVSS", "polyreactivity (PSR sort gate)": "low polyreactivity"},
      {"sequence": "QVQLVESGGGLDQAGGSLRLSCAASGRIVVGYAMGWYRQAPGKERELVAAINRSGSSTYYADSVKGRFTISRDNGKITVYLQMNSLKPEDTAVYYCNARSGNRYGPRYDYWGQGTQVTVSS", "polyreactivity (PSR sort gate)": "high polyreactivity"},
      {"sequence": "QVQLVESGGGLVQAGGSLRLSCAASGITFVFYAMGRYRPAPGKERELVAAISSSGGSTYYADSVKGRFTISRDNAKNTVYLQMNSLKAEDTAVYYCNAKVFSYQGAVRYDYWGQGTQVTVSS", "polyreactivity (PSR sort gate)": "high polyreactivity"},
      {"sequence": "QVQLVESAGGLVQAGGSLRLSCAASGYIFVPYAMGWYRQAPGKERELVASITWSGGSTYYADSVKGRFTISRDNAKNTVYLQMNSLKPEDTAVYYCAAANYTYASRWYDYWGQGTQVTVSS", "polyreactivity (PSR sort gate)": "low polyreactivity"},
      {"sequence": "QVQLVESGGGLVQAGGSLRLSCAASGRIFWINDMGWSRQAPGKERELVAAIRSIGGSTYYADSVKGRFTISRDNGKNTVYLQMNSLKPEDTAVYYCAAKSSPKVRGRYYYWGQGTQVTVSS", "polyreactivity (PSR sort gate)": "low polyreactivity"},
      {"sequence": "QVQLVESGGGLVQAGGSLRLSCAASGLIFRYYDMGWYRQAPGKERELVAAISSSGTRTYYADSVKGRFTISRENPKNTVYLQMNSLKPEDTSVYYCATENQNPTGGYWGQGTQVTVSS", "polyreactivity (PSR sort gate)": "high polyreactivity"}
    ]}
  ]
}
